Here are results for 1 sequence from paper PMC8113585.

The data set deals with SARS-CoV-2 nucleocapsid (N) protein, full-length;mAb nCoV396 (human IgG1) (SARS-CoV-2;Homo sapiens) (UniProt P0DTC9). In words: EMSA.

In general, Kd refers to a measure of binding affinity in units of concentration. High values mean weaker binding, low ones tighter binding.

Turning to AAGUUCGUUU [TRS RNA], the Kd worked out at 15.1 µM.
